Experimental data as given in patent US20210054067A1 (ALETHIA BIOTHERAPEUTICS, published 2021).

Tests used:
[1] = target: T1, KAAG1 on the surface of cancer cells (SKOV-3, TOV-21G ovarian cancer cells) (human, UniProt Q9UBP8 31-84); experiment: flow cytometry on KAAG1-expressing cancer cells (told in the summary)
T1 construct: endogenous KAAG1 of human cancer cell lines; Also used for the Triton X-100 permeabilized SKOV-3 cells (named in the assay field); also called KAAG1 antigen; cell surface KAAG1
T1 sequence: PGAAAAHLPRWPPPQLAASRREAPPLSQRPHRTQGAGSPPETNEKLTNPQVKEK

[2] = target: T2, recombinant human KAAG1 (purified protein) (human, UniProt Q9UBP8 1-84, limits assumed); experiment: SPR (ProteOn XPR36), antibody captured on anti-human IgG Fc, KAAG1 as analyte, 25 C; parent LcHc (chimeric 3A4)
T2 construct: also called gel filtration purified KAAG1
T2 sequence: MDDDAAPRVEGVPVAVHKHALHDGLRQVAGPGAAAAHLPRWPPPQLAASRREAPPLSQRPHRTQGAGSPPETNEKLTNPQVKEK
Experimental: Immediately after the activation, a 13 μg/mL solution of anti-human IgG Fc fragment specific in 10 mM NaOAc pH 4.5 was injected in the analyte direction at a flow rate of 25 μL/min until approximately 8000 resonance units (RUs) were immobilized. Remaining active groups were quenched by a 300 s injection of 1M ethanolamine at 30 μL/min in the analyte direction, and this also ensures mock-activated interspots are created for blank referencing. The screening of the 3A4 variants for binding to KAAG1 occurred in two steps: an indirect capture of 3A4 variants from cell supernatant onto the anti-human IgG Fc fragment specific surface in the ligand direction (vertical) followed by a KAAG1 injection in the analyte direction. Firstly, one buffer injection for 30 s at 100 uL/min in the ligand direction was used to stabilize the baseline. […] Four to five 3A4 variants along with wild-type 3A4 were simultaneously injected in individual ligand channels for 240 s at flow 25 μL/min. […] The first ligand channel was left empty to use as a blank control if required. […]
Sensorgrams were aligned and double-referenced using the buffer blank injection and interspots, and the resulting sensorgrams were analyzed using ProteOn Manager software v3.0.

[3] = target: T2, recombinant human KAAG1 (purified …); experiment: surface plasmon resonance (told in the summary); summary statement; form of 3A4 and SPR set-up not stated
[4] = target: T3, Fc-KAAG1 truncated mutant ending at amino acid 60 of KAAG1 (human, UniProt Q9UBP8 1-60, biotinylated); experiment: ELISA: biotinylated Fc-KAAG1 1-60 on streptavidin plate, OD450
T3 construct: also called KAAG1 truncated Fc-fusion (1-60); not shown: Fc part from vector pYD5
T3 sequence: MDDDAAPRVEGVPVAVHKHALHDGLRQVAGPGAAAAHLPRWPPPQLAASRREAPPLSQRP
Experimental: (§1) The expression and purification of human recombinant KAAG1 as an Fc fusion protein is found in PCT/CA2009/001586. To carry out the binding of Fc-KAAG1 to the antibody preparation, the Fc-KAAG1 was biotinylated with NHS-biotin (Pierce, Rockford, Ill.) and 10 ng/well was coated in a streptavidin 96-well plate for 1 h at room temperature. Purified chimeric 3A4 was added at increasing concentrations and incubated at room temperature for 30 minutes. Bound antibody was detected with HRP-conjugated human anti-kappa light chain antibody in the presence of TMB liquid substrate (Sigma-Aldrich Canada Ltd., Oakville, ON) and readings were conducted at 450 nm in microtiter plate reader. […] When the control unrelated IgG was incubated with the recombinant KAAG1, no binding activity was observed, even at the very highest concentration. […] The binding of 3A4 was compared to the binding of the chimeric 3D3 (described in Tremblay and Filion (2009)), that has different epitope specificity (see Example 2). The binding activity of 3A4 is very similar to 3D3 in this type of assay (see FIG. 1).
(§2) Based on the teachings of Tremblay and Filion (2009), it was known that other antibodies interacted with specific regions of recombinant KAAG1. Thus, anti-KAAG1 antibody 3C4, 3D3, and 3G10 interacted with the regions 1-35, 36-60, and 61-84 of KAAG1, respectively. […]

[5] = target: T4, Fc-KAAG1 truncated mutant ending at amino acid 35 of KAAG1 (human, not fully specified; biotinylated); experiment: ELISA: biotinylated Fc-KAAG1 1-35 on streptavidin plate, OD450
T4 construct: also called KAAG1 truncated Fc-fusion (1-35); not shown: Fc part from vector pYD5
T4 chain: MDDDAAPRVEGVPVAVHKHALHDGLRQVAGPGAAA
Experimental: as §1, §2

fold less antibody required compared to 3G10 [1]: ~10 fold
Kd [2]: 0.057 nM
Kd [3]: ~0.057 nM
B1: 3A4 chimeric anti-KAAG1 antibody (mouse-human chimeric IgG1) (antibody, V domains shown)
VH: QIQLVQSGPEMVKPGASVKMSCKASGYTFTDDYMSWVKQSHGKSLEWIGDINPYNGDTNYNQKFKGKAILTVDKSSSTAYMQLNSLTSEDSAVYYCARDPGAMDYWGQGTSVTVSS
VL: DVVMTQTPLSLAVSLGDQASISCRSSQSLLHSNGNTYLEWYLQKPGQSPKLLIHTVSNRFSGVPDRFSGSGSGTDFTLKISRVEAEDLGVYYCFQGSHVPLTFGAGTRLELKR
notes: also called chimeric 3A4; murine 3A4
binding result [4]: no binding (tested: not given on the sheet)
binding result [5]: no binding (tested: not given on the sheet)
